Here are results for six molecules from patent publication US8026218 (UNIVERSITY OF ARIZONA, dated 2011).

Where two headings read alike, the source gives them in different places. Square brackets hold non-standard residues; d marks the D form. Primed or numbered codes have the meaning given here. Ends that are not written are not given here. * marks the point of attachment. NH(3,5-(CF3)2-benzyl) = FC(F)(F)c1cc(CN*)cc(C(F)(F)F)c1; OBzl(3,5-(CF3)2) = FC(F)(F)c1cc(CO*)cc(C(F)(F)F)c1; Glc″ = glucosyl on the serine side-chain oxygen; Dmt = Cc1cc(O)cc(C)c1C[C@H](N)C(=O)O; Nle = CCCC[C@H](N)C(=O)O; NHBn = c1ccc(CN*)cc1

Assay [1] deals with T1, guinea pig NK1 receptor (guinea pig, UniProt P30547 1-407). Description: cell-based or functional assay.
T1 sequence (P30547 whole entry): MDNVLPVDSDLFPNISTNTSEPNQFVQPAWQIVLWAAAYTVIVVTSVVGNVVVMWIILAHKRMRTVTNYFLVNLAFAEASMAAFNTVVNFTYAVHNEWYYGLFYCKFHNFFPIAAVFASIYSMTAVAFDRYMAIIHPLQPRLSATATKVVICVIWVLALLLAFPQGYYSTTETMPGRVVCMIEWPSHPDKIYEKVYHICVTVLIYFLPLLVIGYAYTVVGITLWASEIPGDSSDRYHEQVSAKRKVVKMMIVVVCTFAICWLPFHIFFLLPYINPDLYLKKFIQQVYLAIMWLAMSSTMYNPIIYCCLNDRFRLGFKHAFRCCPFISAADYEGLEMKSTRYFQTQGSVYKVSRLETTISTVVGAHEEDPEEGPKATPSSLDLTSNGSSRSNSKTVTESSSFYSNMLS
Assay [2] has as its target T2, µ opioid receptor of the guinea pig isolated ileum (guinea pig, UniProt P97266 1-98). Description: cell-based or functional assay.
For assay [3], the target named is T3, human δ opioid receptor (human, UniProt P41143 1-372).
T3 construct: whole, on cells; membrane preparations of the transfected cells were used; also called hDOR; DOR
T3 sequence (P41143 whole entry, stated change not applied): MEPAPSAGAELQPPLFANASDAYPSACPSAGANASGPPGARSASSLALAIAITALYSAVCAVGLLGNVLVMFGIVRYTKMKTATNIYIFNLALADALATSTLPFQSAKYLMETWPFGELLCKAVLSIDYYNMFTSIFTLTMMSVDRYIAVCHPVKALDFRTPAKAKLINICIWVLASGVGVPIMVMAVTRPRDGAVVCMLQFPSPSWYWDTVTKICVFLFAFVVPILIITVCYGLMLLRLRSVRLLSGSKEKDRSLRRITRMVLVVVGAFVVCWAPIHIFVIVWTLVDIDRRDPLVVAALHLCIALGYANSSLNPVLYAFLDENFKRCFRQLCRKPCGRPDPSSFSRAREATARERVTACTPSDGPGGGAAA
Description: competition vs [3H]DPDPE, hDOR cell membranes.

Assay [4] concerns the target T1, guinea pig NK1 receptor. Description: cell-based or functional assay. This is another data set of the same source.
For assay [5], the target named is T2, µ opioid receptor of the guinea pig …. Description: cell-based or functional assay. This is another data set of the same source.
Assay [6] has as its target T4, human NK1 receptor (human, UniProt P25103 1-407).
T4 construct: whole, on cells; membrane preparations of the transfected cells were used; also called hNK1; human neurokinin-1 receptor
Description: competition vs [3H]Substance P, hNK1 CHO cell membranes.

In assay [7] the target is T5, rat NK1 receptor (rat, UniProt P14600 1-407).
T5 construct: whole, on cells; membrane preparations of the transfected cells were used; also called rNK1; rNK-1
T5 sequence (P14600 whole entry): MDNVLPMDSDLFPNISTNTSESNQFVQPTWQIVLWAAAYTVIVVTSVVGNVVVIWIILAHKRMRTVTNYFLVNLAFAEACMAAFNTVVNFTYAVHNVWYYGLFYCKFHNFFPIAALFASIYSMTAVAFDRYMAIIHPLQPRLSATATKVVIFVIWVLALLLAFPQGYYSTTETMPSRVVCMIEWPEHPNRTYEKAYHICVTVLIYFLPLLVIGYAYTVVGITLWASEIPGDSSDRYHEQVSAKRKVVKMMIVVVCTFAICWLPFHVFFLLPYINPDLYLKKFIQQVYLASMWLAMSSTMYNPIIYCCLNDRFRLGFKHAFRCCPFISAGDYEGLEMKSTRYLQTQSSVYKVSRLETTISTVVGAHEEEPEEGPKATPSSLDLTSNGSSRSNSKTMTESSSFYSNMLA
Description: competition vs [3H]Substance P, rNK1 CHO cell membranes.

The target in assay [8] is T6, rat µ opioid receptor (rat, UniProt P33535 1-398). The assay is described as follows: cell-based or functional assay.
T6 sequence (P33535 whole entry): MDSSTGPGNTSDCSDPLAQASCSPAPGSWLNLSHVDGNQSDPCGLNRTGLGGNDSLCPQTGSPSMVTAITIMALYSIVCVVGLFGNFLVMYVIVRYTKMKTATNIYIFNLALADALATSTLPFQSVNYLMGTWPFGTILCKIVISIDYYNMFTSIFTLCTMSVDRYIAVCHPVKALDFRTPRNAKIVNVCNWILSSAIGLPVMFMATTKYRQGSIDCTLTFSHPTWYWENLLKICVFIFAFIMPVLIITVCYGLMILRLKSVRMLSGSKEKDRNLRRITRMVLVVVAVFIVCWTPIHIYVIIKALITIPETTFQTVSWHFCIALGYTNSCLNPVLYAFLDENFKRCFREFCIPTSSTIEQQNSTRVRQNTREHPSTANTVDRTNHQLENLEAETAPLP
In assay [9] the target is T3, human δ opioid receptor. Description: cell-based or functional assay.
Assay [10] concerns the target T3, human δ opioid receptor. Description: competition vs [3H]DPDPE, hDOR cell membranes. The source holds these as a separate data set.
Assay [11] addresses T5, rat NK1 receptor. Description: competition vs [3H]Substance P, rNK1 CHO cell membranes. The source holds these as a separate data set.
In assay [12] the target is T1, guinea pig NK1 receptor. The assay is described as follows: cell-based or functional assay. This is another data set of the same source.
Assay [13] has as its target T2, µ opioid receptor of the guinea pig …. The assay is described as follows: cell-based or functional assay. This is another data set of the same source.
In assay [14] the target is T3, human δ opioid receptor. The assay is described as follows: competition vs [3H]DPDPE, hDOR cell membranes. The source holds these as a separate data set.
Assay [15] addresses T4, human NK1 receptor. The assay is described as follows: competition vs [3H]Substance P, hNK1 CHO cell membranes. This is another data set of the same source.
The target of assay [16] is T1, guinea pig NK1 receptor. The assay is described as follows: cell-based or functional assay. The source holds these as a separate data set.
In assay [17] the target is T3, human δ opioid receptor. The assay is described as follows: cell-based or functional assay. The source holds these as a separate data set.
The target of assay [18] is T2, µ opioid receptor of the guinea pig …. Description: cell-based or functional assay. This is another data set of the same source.
Assay [19] addresses T3, human δ opioid receptor. Description: competition vs [3H]DPDPE, hDOR cell membranes. The source holds these as a separate data set.
The target in assay [20] is T4, human NK1 receptor. The assay is described as follows: competition vs [3H]Substance P, hNK1 CHO cell membranes. This is another data set of the same source.
For assay [21], the target named is T6, rat µ opioid receptor. The assay is described as follows: cell-based or functional assay. The source holds these as a separate data set.
Assay [22] deals with T6, rat µ opioid receptor. Description: competition vs [3H]DAMGO, rMOR cell membranes.

T2 sequence (P97266 whole entry): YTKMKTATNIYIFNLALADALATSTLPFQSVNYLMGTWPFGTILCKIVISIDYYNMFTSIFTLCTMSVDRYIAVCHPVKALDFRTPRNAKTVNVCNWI
T4 sequence (P25103 whole entry): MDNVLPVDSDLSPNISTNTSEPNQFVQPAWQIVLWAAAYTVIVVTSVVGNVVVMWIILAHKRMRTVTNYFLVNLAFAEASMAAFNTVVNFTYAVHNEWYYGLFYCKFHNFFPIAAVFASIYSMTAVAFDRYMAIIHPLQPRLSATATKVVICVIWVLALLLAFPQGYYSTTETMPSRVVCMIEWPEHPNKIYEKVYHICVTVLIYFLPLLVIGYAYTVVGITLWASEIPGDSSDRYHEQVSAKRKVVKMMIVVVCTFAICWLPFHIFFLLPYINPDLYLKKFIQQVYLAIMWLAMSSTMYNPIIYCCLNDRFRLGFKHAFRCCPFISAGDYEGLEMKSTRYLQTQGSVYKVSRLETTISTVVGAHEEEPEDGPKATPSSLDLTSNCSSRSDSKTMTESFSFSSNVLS

By Ki is commonly meant the equilibrium dissociation constant of an inhibitor or competing ligand from its target. A lower Ki goes with a stronger hold on the target. For the molecule Y[dA]GFMPLW-NHBn (also called TY025) [TyrDAlaGlyPheMetProLeuTrpNHBn], the “GPI/LMMP Substance P antagonist Ke” value in [1] is 9.9 nM. In addition, in assay [2], the “GPI/LMMP IC50” value came out at 61.1 nM. Further, in assay [3], the Ki worked out at 0.44 nM. Besides, the “GPI Substance P antagonist Ke” value in assay [4] came to 9.9 nM. The “GPI (µ) IC50” value in assay [5] came to 61 nM.
With [Dmt][dA]GFMPLW-{OBzl(3,5-(CF3)2)} (also called TY033) [DmtDAlaGlyPheMetProLeuTrpOBn(CF3)2], the Ki came to 1.2 nM in assay [6], 0.22 nM in assay [3] and 0.96 nM in [7]. Also, the “GPI/LMMP Substance P antagonist Ke” value in [1] worked out at 24.5 nM. Moreover, in assay [2], the “GPI/LMMP IC50” value is 100 nM.
By IC50 is commonly meant the concentration at which inhibition is half-maximal. Low values mean inhibition by little substance, high ones a need for much substance. For the molecule Y[dA]GFMPLW-{OBzl(3,5-(CF3)2)} (also called TY005) [TyrDAlaGlyPheMetProLeuTrpOBn(CF3)2], the “GTP binding Emax” value in [8] worked out at 45.6%; in [9] it was 47.6%. Moreover, in [9], the “GTP binding EC50” value was 2.9 nM. The figures for the Ki in [10], in assay [3] and in [7] were 2.8 nM, 2.8 nM and 0.2 nM, respectively. In [11], this molecule registered an IC50 of 6.4 nM. Also, in assay [1], the “GPI/LMMP Substance P antagonist Ke” value is 24.7 nM. Also, the “GPI/LMMP IC50” value in [2] and in assay [13] was 359 nM in each case. Further, the “GPI/LMMP SP antagonist Ke” value in assay [12] came out at 24.7 nM. For the same molecule, the “GPI Substance P antagonist Ke” value in [4] was 25 nM. Further, in assay [5], the “GPI (µ) IC50” value worked out at 360 nM.

B1: DmtDAlaGlyPheNleProLeuTrpNHBn-2,4-(OMe)2 (peptide)
peptide: YAGFXPLW
modifications: not fully specified; Dmt at 1 (written Y); D-Ala at 2; Nle at 5 (written X); C-terminal dimethoxybenzyl amide (NHBn-2,4-(OMe)2 in Table 39, NH-3,5-Bn(OMe)2 in Table 31)
notes: also called TY054
Regarding B1, the figures for the Ki in assay [14] and in assay [15] were 0.15 nM and 0.95 nM, respectively.
Consider YAGFXPLW (D-Ala at 2; Nle at 5 (written X); C-terminal NH-3,5-Bzl(CF3)2 amide, also called TY045) [TyrDAlaGlyPheNleProLeuTrpNHBn(CF3)2], for which the “GPI/LMMP SP antagonist Ke” value in assay [16] came out at 40.8 nM. In assay [17], the “GTP binding EC50” value is 5 nM and the “GTP binding Emax” value came to 125%. For the same molecule, the “GPI/LMMP IC50” value in assay [18] came out at 463 nM. Besides, the Ki in [19] amounted to 1 nM. The molecule also gave a Ki in assay [20] of 0.0028 nM.
As for Y[dA]GF[Nle]S(Glc″)LW-{NH(3,5-(CF3)2-benzyl)} (also called TY044) [TyrDAlaGlyPheNleSer(OGlu)LeuTrpNHBn(CF3)2], the “GPI/LMMP SP antagonist Ke” value in assay [16] amounted to 18.4 nM. The “GTP binding EC50” value in assay [21] stood at 380 nM. Moreover, the “GTP binding Emax” value in assay [21] came out at 85%; in assay [17], 162%. Besides, the “GPI/LMMP IC50” value in [18] came to 249 nM. Moreover, the Ki was 3370 nM in assay [22] and 1.3 nM in assay [20].
